In patent US20220112244A1 (DOMPE FARMACEUTICI S P A, published 2022):

Each binder was assayed against IL-17A (agonist in the IL-17RA/IL17RC dimerization assay) (UniProt Q16552 24-155) (assay: cell-based or functional assay).
IL-17A (agonist in the IL-17RA/IL17RC dimerization assay), sequence (Q16552 24-155 limits assumed): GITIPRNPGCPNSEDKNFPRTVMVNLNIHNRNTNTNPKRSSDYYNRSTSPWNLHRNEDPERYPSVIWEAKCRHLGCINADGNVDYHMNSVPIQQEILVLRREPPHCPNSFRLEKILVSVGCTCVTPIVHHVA
With Ac-IHVTIPADLWDWIDK-NH2 [peptide of SEQ ID NO: 221] the “IC50 in IL-17RA/IL7RC dimerization assay” value was under 10 µM.
Ac-IHVTIPADLWDWVEE-NH2 [peptide of SEQ ID NO: 15] was tested, and the “IC50 in IL-17RA/IL7RC dimerization assay” value was under 0.4 µM.
With Ac-IHVTAPADLWDWINK-NH2 [peptide of SEQ ID NO: 179] the “IC50 in IL-17RA/IL7RC dimerization assay” value was under 10 µM.
For Ac-IHATIPADLWDWINK-NH2 [peptide of SEQ ID NO: 167], the “IC50 in IL-17RA/IL7RC dimerization assay” value was under 10 µM.
In the case of Ac-IHVTIGADLWDWINK-NH2 [peptide of SEQ ID NO: 187], the “IC50 in IL-17RA/IL7RC dimerization assay” value is reported as under 10 µM.
Ac-IHVTVPADLWDWINK-NH2 [peptide of SEQ ID NO: 183] was tested, and the “IC50 in IL-17RA/IL7RC dimerization assay” value was under 10 µM.
In the case of Ac-IHVTIPADVWDWINK-NH2 [peptide of SEQ ID NO: 204], the “IC50 in IL-17RA/IL7RC dimerization assay” value is reported as under 10 µM.
With Ac-IHVTIPVDLWDWINK-NH2 [peptide of SEQ ID NO: 195] the “IC50 in IL-17RA/IL7RC dimerization assay” value was under 10 µM.
With Ac-IHVTIPAYLWDWINK-NH2 [peptide of SEQ ID NO: 200] the “IC50 in IL-17RA/IL7RC dimerization assay” value was under 10 µM.
Ac-IHVTIPADLWDWANK-NH2 [peptide of SEQ ID NO: 214] was tested, and the “IC50 in IL-17RA/IL7RC dimerization assay” value was under 10 µM.
In the case of Ac-IHVTFPADLWDWINK-NH2 [peptide of SEQ ID NO: 184], the “IC50 in IL-17RA/IL7RC dimerization assay” value is reported as under 10 µM.
In the case of Ac-IHVTIPADLWDHINK-NH2 [peptide of SEQ ID NO: 209], the “IC50 in IL-17RA/IL7RC dimerization assay” value is reported as under 10 µM.
Ac-IHVNIPADLWDWINK-NH2 [peptide of SEQ ID NO: 177] was tested, and the “IC50 in IL-17RA/IL7RC dimerization assay” value was under 10 µM.
With Ac-IHVTIPADLFDWINK-NH2 [peptide of SEQ ID NO: 207] the “IC50 in IL-17RA/IL7RC dimerization assay” value was under 10 µM.
Ac-IHVTIPADLWDWENK-NH2 [peptide of SEQ ID NO: 212] was tested, and the “IC50 in IL-17RA/IL7RC dimerization assay” value was under 10 µM.
For Ac-IHPTIPADLWDWINK-NH2 [peptide of SEQ ID NO: 170], the “IC50 in IL-17RA/IL7RC dimerization assay” value was under 10 µM.
With Ac-IHVTIPADLWDWIQK-NH2 [peptide of SEQ ID NO: 220] the “IC50 in IL-17RA/IL7RC dimerization assay” value was under 10 µM.
For Ac-IHVTIPADLWDFINK-NH2 [peptide of SEQ ID NO: 210], the “IC50 in IL-17RA/IL7RC dimerization assay” value was under 10 µM.
In the case of Ac-IHVTIPLDLWDWINK-NH2 [peptide of SEQ ID NO: 193], the “IC50 in IL-17RA/IL7RC dimerization assay” value is reported as under 10 µM.
In the case of Ac-IHVTIPADLWDWFNK-NH2 [peptide of SEQ ID NO: 218], the “IC50 in IL-17RA/IL7RC dimerization assay” value is reported as under 10 µM.
In the case of Ac-IHVTIPADAWDWINK-NH2 [peptide of SEQ ID NO: 201], the “IC50 in IL-17RA/IL7RC dimerization assay” value is reported as under 10 µM.
Ac-IHVTIPADLWDWYNK-NH2 [peptide of SEQ ID NO: 219] was tested, and the “IC50 in IL-17RA/IL7RC dimerization assay” value was under 10 µM.
In the case of Ac-IHVTIPADPWDWINK-NH2 [peptide of SEQ ID NO: 203], the “IC50 in IL-17RA/IL7RC dimerization assay” value is reported as under 10 µM.
For Ac-IHGTIPADLWDWINK-NH2 [peptide of SEQ ID NO: 168], the “IC50 in IL-17RA/IL7RC dimerization assay” value was under 10 µM.
For Ac-IHVTINADLWDWINK-NH2 [peptide of SEQ ID NO: 191], the “IC50 in IL-17RA/IL7RC dimerization assay” value was under 10 µM.
For Ac-IHWTIPADLWDWINK-NH2 [peptide of SEQ ID NO: 173], the “IC50 in IL-17RA/IL7RC dimerization assay” value was under 10 µM.
Ac-VHVTVPQELYEWVRR-NH2 [peptide of SEQ ID NO: 226] was tested, and the “IC50 in IL-17RA/IL7RC dimerization assay” value was under 10 µM.
Ac-IHVYIPADLWDWINK-NH2 [peptide of SEQ ID NO: 176] was tested, and the “IC50 in IL-17RA/IL7RC dimerization assay” value was under 10 µM.
Ac-IHYTIPADLWDWINK-NH2 [peptide of SEQ ID NO: 172] was tested, and the “IC50 in IL-17RA/IL7RC dimerization assay” value was under 10 µM.
With Ac-IHVTIPIDLWDWINK-NH2 [peptide of SEQ ID NO: 196] the “IC50 in IL-17RA/IL7RC dimerization assay” value was under 10 µM.
Ac-IHVTIPADLWDYINK-NH2 [peptide of SEQ ID NO: 211] was tested, and the “IC50 in IL-17RA/IL7RC dimerization assay” value was under 10 µM.
Ac-VHVTVPQELWEWVRR-NH2 [peptide of SEQ ID NO: 224] was tested, and the “IC50 in IL-17RA/IL7RC dimerization assay” value was under 10 µM.
Ac-IHVTIPADLWDWIND-NH2 [peptide of SEQ ID NO: 223] was tested, and the “IC50 in IL-17RA/IL7RC dimerization assay” value was under 10 µM.
For Ac-VMVTIPADLYEWINK-NH2 [peptide of SEQ ID NO: 16], the “IC50 in IL-17RA/IL7RC dimerization assay” value was under 0.4 µM.
With Ac-IHVTIPAQLWDWINK-NH2 [peptide of SEQ ID NO: 199] the “IC50 in IL-17RA/IL7RC dimerization assay” value was under 10 µM.
In the case of Ac-IHVSIPADLWDWINK-NH2 [peptide of SEQ ID NO: 175], the “IC50 in IL-17RA/IL7RC dimerization assay” value is reported as under 10 µM.
With Ac-IQVTIPADLWDWINK-NH2 [peptide of SEQ ID NO: 165] the “IC50 in IL-17RA/IL7RC dimerization assay” value was under 10 µM.
In the case of Ac-IHFTIPADLWDWINK-NH2 [peptide of SEQ ID NO: 174], the “IC50 in IL-17RA/IL7RC dimerization assay” value is reported as under 10 µM.
In the case of Ac-IYVTIPADLWDWINK-NH2 [peptide of SEQ ID NO: 166], the “IC50 in IL-17RA/IL7RC dimerization assay” value is reported as under 10 µM.
For Ac-IHVTLPADLWDWINK-NH2 [peptide of SEQ ID NO: 181], the “IC50 in IL-17RA/IL7RC dimerization assay” value was under 10 µM.
Ac-IHITIPADLWDWINK-NH2 [peptide of SEQ ID NO: 171] was tested, and the “IC50 in IL-17RA/IL7RC dimerization assay” value was under 10 µM.
With Ac-IHVTIPADLWDWGNK-NH2 [peptide of SEQ ID NO: 215] the “IC50 in IL-17RA/IL7RC dimerization assay” value was under 10 µM.
With Ac-IHVTIPADLWDWINH-NH2 [peptide of SEQ ID NO: 222] the “IC50 in IL-17RA/IL7RC dimerization assay” value was under 10 µM.
Ac-IHVTIPADGWDWINK-NH2 [peptide of SEQ ID NO: 202] was tested, and the “IC50 in IL-17RA/IL7RC dimerization assay” value was under 10 µM.
For Ac-IHVTIIADLWDWINK-NH2 [peptide of SEQ ID NO: 190], the “IC50 in IL-17RA/IL7RC dimerization assay” value was under 10 µM.
With Ac-IHVQIPADLWDWINK-NH2 [peptide of SEQ ID NO: 178] the “IC50 in IL-17RA/IL7RC dimerization assay” value was under 10 µM.
With Ac-IHVTYPADLWDWINK-NH2 [peptide of SEQ ID NO: 185] the “IC50 in IL-17RA/IL7RC dimerization assay” value was under 10 µM.
For Ac-IEVTIPADLWDWINK-NH2 [peptide of SEQ ID NO: 164], the “IC50 in IL-17RA/IL7RC dimerization assay” value was under 10 µM.
With Ac-IHVTGPADLWDWINK-NH2 [peptide of SEQ ID NO: 180] the “IC50 in IL-17RA/IL7RC dimerization assay” value was under 10 µM.
For Ac-IHLTIPADLWDWINK-NH2 [peptide of SEQ ID NO: 169], the “IC50 in IL-17RA/IL7RC dimerization assay” value was under 10 µM.
With Ac-IHVTIPADLWDWLNK-NH2 [peptide of SEQ ID NO: 216] the “IC50 in IL-17RA/IL7RC dimerization assay” value was under 10 µM.
In the case of Ac-IHVTIPADLWNWINK-NH2 [peptide of SEQ ID NO: 208], the “IC50 in IL-17RA/IL7RC dimerization assay” value is reported as under 10 µM.
With Ac-IHVTIPPDLWDWINK-NH2 [peptide of SEQ ID NO: 194] the “IC50 in IL-17RA/IL7RC dimerization assay” value was under 10 µM.
In the case of Ac-IHVTIPADLHDWINK-NH2 [peptide of SEQ ID NO: 206], the “IC50 in IL-17RA/IL7RC dimerization assay” value is reported as under 10 µM.
With Ac-IHVTILADLWDWINK-NH2 [peptide of SEQ ID NO: 188] the “IC50 in IL-17RA/IL7RC dimerization assay” value was under 10 µM.
For Ac-IHVTIPNDLWDWINK-NH2 [peptide of SEQ ID NO: 197], the “IC50 in IL-17RA/IL7RC dimerization assay” value was under 10 µM.
Ac-IHVTIPQDLWDWINK-NH2 [peptide of SEQ ID NO: 198] was tested, and the “IC50 in IL-17RA/IL7RC dimerization assay” value was under 10 µM.
For Ac-VHVTVPQELFEWVRR-NH2 [peptide of SEQ ID NO: 225], the “IC50 in IL-17RA/IL7RC dimerization assay” value was under 10 µM.
With Ac-IHVTIVADLWDWINK-NH2 [peptide of SEQ ID NO: 189] the “IC50 in IL-17RA/IL7RC dimerization assay” value was under 10 µM.
In the case of Ac-IHVTIPADLWDWKNK-NH2 [peptide of SEQ ID NO: 213], the “IC50 in IL-17RA/IL7RC dimerization assay” value is reported as under 10 µM.
With Ac-IHVTIPADLWDWIEK-NH2 [peptide of SEQ ID NO: 11] the “IC50 in IL-17RA/IL7RC dimerization assay” value was under 0.4 µM.
For Ac-IHVTIPADLWDWPNK-NH2 [peptide of SEQ ID NO: 217], the “IC50 in IL-17RA/IL7RC dimerization assay” value was under 10 µM.
For Ac-IHVTIPADIWDWINK-NH2 [peptide of SEQ ID NO: 205], the “IC50 in IL-17RA/IL7RC dimerization assay” value was under 10 µM.
